Source: patent publication US20250019412A1 (ALPINE IMMUNE SCIENCES, published 2025)
Values joined by “and” are separate entries in the source; they are usually repeats but may differ in a detail not shown here. Equal entries are not always repeated.

Assays:
[1] = target: recombinant human BAFF (human) (UniProt Q9Y275)
[2] = target: T1, recombinant human APRIL (human, UniProt O75888 105-250, limits assumed); assay: cell-based or functional assay
T1 sequence (looked up): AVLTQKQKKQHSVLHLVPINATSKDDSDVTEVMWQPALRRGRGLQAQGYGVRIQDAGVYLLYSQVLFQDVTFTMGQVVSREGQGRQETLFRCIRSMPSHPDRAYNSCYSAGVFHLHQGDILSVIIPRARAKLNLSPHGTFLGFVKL

[3] = target: recombinant human BAFF (human) (UniProt Q9Y275); assay: cell-based or functional assay
[4] = target: T2, recombinant human BAFF (human, UniProt Q9Y275 134-285); assay: cell-based or functional assay
[5] = target: T1, recombinant human APRIL; assay: cell-based or functional assay; remark: listed apart in the source
[6] = target: T2, recombinant human BAFF; assay: cell-based or functional assay; remark: listed apart in the source
[7] = target: T2, recombinant human BAFF; assay: cell-based or functional assay; remark: listed apart in the source

Sequence of TACI 13-118-Fc (Fc fusion) (chain): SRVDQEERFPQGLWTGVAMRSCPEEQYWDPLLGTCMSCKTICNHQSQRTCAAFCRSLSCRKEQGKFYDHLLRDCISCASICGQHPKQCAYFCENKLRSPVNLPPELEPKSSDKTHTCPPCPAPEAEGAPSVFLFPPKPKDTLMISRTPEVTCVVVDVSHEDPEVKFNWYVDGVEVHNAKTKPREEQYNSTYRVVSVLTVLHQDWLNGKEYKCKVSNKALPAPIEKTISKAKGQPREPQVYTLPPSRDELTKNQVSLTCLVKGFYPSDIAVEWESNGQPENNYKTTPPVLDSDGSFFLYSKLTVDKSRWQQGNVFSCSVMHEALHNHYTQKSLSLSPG
Sequence of TACI 30-110-Fc (Fc fusion) (chain): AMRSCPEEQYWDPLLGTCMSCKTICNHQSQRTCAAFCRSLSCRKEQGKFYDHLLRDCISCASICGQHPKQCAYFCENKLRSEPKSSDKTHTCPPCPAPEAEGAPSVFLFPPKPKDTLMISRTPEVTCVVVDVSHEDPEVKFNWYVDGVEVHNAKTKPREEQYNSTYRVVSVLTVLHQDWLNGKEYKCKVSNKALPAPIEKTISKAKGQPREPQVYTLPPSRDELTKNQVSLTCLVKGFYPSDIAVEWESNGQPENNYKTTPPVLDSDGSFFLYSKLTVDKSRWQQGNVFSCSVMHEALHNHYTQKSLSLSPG

Molecule | APRIL IC50 (pM) [2] | APRIL IC50 (ΔWT) (fold of WT TACI (68-110)-Fc) [2] | BAFF IC50 (pM) [3] | BAFF IC50 (ΔWT) (fold of WT TACI (68-110)-Fc) [3] | further results
TACI vTD-Fc K77E, A101D (SEQ ID NO: 25) (Fc fusion) | 2040 pM | 0.17 | 1960 pM | 1.06 | IC50 (read off the curve): blockade of human BAFF signalling via TACI (NF-κB luciferase reporter, Jurkat/NF-κB/TACI cells) [1]: 0.6 nM
TACI vTD-Fc K77E, R84Q (SEQ ID NO: 24) (Fc fusion) | 4260 pM | 0.35 | 2260 pM | 1.22 | IC50 (read off the curve): blockade of human BAFF signalling via TACI (NF-κB luciferase reporter, Jurkat/NF-κB/TACI cells) [1]: 0.6 nM
TACI vTD-Fc Q75E, K77E (SEQ ID NO: 178) (Fc fusion) | 10700 pM | 0.87 | 1890 pM | 1.02 | –
TACI vTD-Fc F78Y, R84Q (SEQ ID NO: 184) (Fc fusion) | 2620 pM | 0.21 | 2260 pM | 1.22 | –
TACI vTD-Fc Q75E, F78Y (SEQ ID NO: 179) (Fc fusion) | 13400 pM | 1.09 | 1790 pM | 0.97 | –
TACI vTD-Fc Q75E, A101D (SEQ ID NO: 180) (Fc fusion) | 20000 pM | 1.62 | 2360 pM | 1.27 | –
TACI vTD-Fc R84Q (SEQ ID NO: 30) (Fc fusion) | 566 pM | 0.05 | 5490 pM | 2.96 | IC50 (read off the curve): blockade of human BAFF signalling via TACI (NF-κB luciferase reporter, Jurkat/NF-κB/TACI cells) [1]: 1 nM
TACI vTD-Fc Q75E (SEQ ID NO: 177) (Fc fusion) | 1940 pM | 0.16 | 1460 pM | 0.79 | –
TACI vTD-Fc Q75E, Y102D (SEQ ID NO: 181) (Fc fusion) | 11100 pM | – | – | – | –
TACI vTD-Fc F78Y (SEQ ID NO: 183) (Fc fusion) | 176 pM | 0.01 | 1640 pM | 0.88 | –
TACI vTD-Fc R84Q, A101D (SEQ ID NO: 187) (Fc fusion) | 11200 pM | 0.91 | 2350 pM | 1.27 | –
TACI vTD-Fc Y102D (SEQ ID NO: 190) (Fc fusion) | 11600 pM | – | – | – | –
20 TACI CRD2-Fc (Fc fusion) variant TACI domain - linker - Fc fusion chain: SLSCRKEQGKFYDHLLGDCISCASICGQHPKQCAYFCENKLRSGSGGGGSEPKSSDKTHTCPPCPAPEAEGAPSVFLFPPKPKDTLMISRTPEVTCVVVDVSHEDPEVKFNWYVDGVEVHNAKTKPREEQYNSTYRVVSVLTVLHQDWLNGKEYKCKVSNKALPAPIEKTISKAKGQPREPQVYTLPPSRDELTKNQVSLTCLVKGFYPSDIAVEWESNGQPENNYKTTPPVLDSDGSFFLYSKLTVDKSRWQQGNVFSCSVMHEALHNHYTQKSLSLSPG | – | – | – | – | IC50 (read off the curve): blockade of human BAFF signalling via TACI (NF-κB luciferase reporter, Jurkat/NF-κB/TACI cells) [4]: ~0.7 nM
31 TACI CRD2-Fc (Fc fusion) variant TACI domain - linker - Fc fusion chain: SLSCRKEQGKFYDHLLQDCINCASICGQHPKQCDYFCENKLRSGSGGGGSEPKSSDKTHTCPPCPAPEAEGAPSVFLFPPKPKDTLMISRTPEVTCVVVDVSHEDPEVKFNWYVDGVEVHNAKTKPREEQYNSTYRVVSVLTVLHQDWLNGKEYKCKVSNKALPAPIEKTISKAKGQPREPQVYTLPPSRDELTKNQVSLTCLVKGFYPSDIAVEWESNGQPENNYKTTPPVLDSDGSFFLYSKLTVDKSRWQQGNVFSCSVMHEALHNHYTQKSLSLSPG | – | – | – | – | IC50 (read off the curve): blockade of human BAFF signalling via TACI (NF-κB luciferase reporter, Jurkat/NF-κB/TACI cells) [4]: ~0.6 nM
belimumab (antibody, V domains shown) VH: QVQLQQSGAEVKKPGSSVRVSCKASGGTFNNNAINWVRQAPGQGLEWMGGIIPMFGTAKYSQNFQGRVAITADESTGTASMELSSLRSEDTAVYYCARSRDLLLFPHHALSPWGRGTMVTVSS VL: SSELTQDPAVSVALGQTVRVTCQGDSLRSYYASWYQQKPGQAPVLVIYGKNNRPSGIPDRFSGSSSGNTASLTITGAQAEDEADYYCSSRDSSGNHWVFGGGTELTVLG | – | – | – | – | IC50 APRIL (Δ TACI 30-110-Fc) [5]: 55.8 fold of TACI 30-110-Fc; IC50 BAFF (Δ TACI 30-110-Fc) [6]: 0.43 fold of TACI 30-110-Fc; BAFF IC50 (pM) [7]: 2200 pM; BAFF IC50 (ΔWT) [7]: 1.18 fold of WT TACI (68-110)-Fc
Telitacicept (label of two rows of Table E29) (Fc fusion, not shown: a dimerising Fc or GST) SRVDQEERFPQGLWTGVAMRSCPEEQYWDPLLGTCMSCKTICNHQSQRTCAAFCRSLSCRKEQGKFYDHLLRDCISCASICGQHPKQCAYFCENKLRSPVNLPPEL | – | – | 9170 pM and 7300 pM | 4.95 and 3.94 | –

More lines, main results first:

APRIL IC50 (pM) [2] | APRIL IC50 (ΔWT) (fold of WT TACI (68-110)-Fc) [2] | BAFF IC50 (pM) [3] | BAFF IC50 (ΔWT) (fold of WT TACI (68-110)-Fc) [3] | Molecule | further results
10100 pM | 0.82 | 1970 pM | 1.06 | TACI vTD-Fc K77E, F78Y (SEQ ID NO: 191) (Fc fusion) | –
891 pM | 0.07 | 2180 pM | 1.17 | TACI vTD-Fc K77E, Y102D (SEQ ID NO: 192) (Fc fusion) | –
8490 pM | 0.69 | 1960 pM | 1.06 | TACI vTD-Fc F78Y, Y102D (SEQ ID NO: 186) (Fc fusion) | –
– | – | 7740 pM | 4.17 | TACI 30-110-Fc (Fc fusion) | IC50 (nM) APRIL [2]: 4320 nM; IC50 APRIL (Δ TACI 30-110) (fold of TACI 30-110) [2]: 1; IC50 APRIL (Δ TACI 30-110-Fc) (fold of TACI 30-110-Fc) [2]: 1; IC50 (nM) BAFF [3]: 4490 nM; IC50 BAFF (Δ TACI 30-110) (fold of TACI 30-110) [3]: 1; IC50 BAFF (Δ TACI 30-110-Fc) (fold of TACI 30-110-Fc) [3]: 1
– | – | 53200 pM | 28.7 | BAFF-R ECD (from UniProt Q96RJ3 1-78) (receptor) | –
– | – | 7900 pM | 4.26 | TACI 13-118-Fc (Fc fusion) | IC50 (nM) APRIL [2]: 7810 nM; IC50 APRIL (Δ TACI 30-110) (fold of TACI 30-110) [2]: 1.81; IC50 APRIL (Δ TACI 30-110-Fc) (fold of TACI 30-110-Fc) [2]: 2.37; IC50 (nM) BAFF [3]: 8450 nM; IC50 BAFF (Δ TACI 30-110) (fold of TACI 30-110) [3]: 1.88; IC50 BAFF (Δ TACI 30-110-Fc) (fold of TACI 30-110-Fc) [3]: 1.33
8380 pM | 0.68 | 1830 pM | 0.99 | TACI vTD-Fc A101D (SEQ ID NO: 23) (Fc fusion) | IC50 (read off the curve): blockade of human BAFF signalling via TACI (NF-κB luciferase reporter, Jurkat/NF-κB/TACI cells) [1]: 0.6 nM
10100 pM | 0.82 | 2210 pM | 1.19 | TACI vTD-Fc K77E, F78Y, R84Q (SEQ ID NO: 182) (Fc fusion) | –
2020 pM | 0.16 | 1850 pM | 1 | TACI vTD-Fc F78Y, A101D (SEQ ID NO: 185) (Fc fusion) | –
12300 pM | 1 | 1860 pM | 1.01 | TACI vTD-Fc R84Q, Y102D (SEQ ID NO: 188) (Fc fusion) | –
33600 pM | 2.72 | 1950 pM | 1.05 | TACI vTD-Fc A101D, Y102D (SEQ ID NO: 189) (Fc fusion) | –
159 pM | 0.01 | 1540 pM | 0.83 | TACI vTD-Fc K77E (SEQ ID NO: 32) (Fc fusion) | –
